“And” between values parts separate entries of the source, which are not always exact repeats. Identical values can stand only once.
Legend:
Details in all cases: 20 nM; 72 h
MCF10A [1] = assay: 5+ nucleoli phenotype percent effect (relative to siNT 0% and siKIF11 100%); higher = more cells with five or more nucleoli
Description: (§1)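 After 72 h, cells were fixed and stained with Hoechst and anti-fibrillarin, and nucleoli per nucleus were counted with CellProfiler. Values are plate-adjusted percent effect for the one-nucleolus and 5+ nucleoli phenotypes, normalised to siNT (0%) and to the positive controls siNOL11 or siKIF11 (100%), as the mean of biological triplicates. Percent viability is the nuclei count relative to siNT.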

MCF10A [2] = assay: percent viability (nuclei count relative to siNT); higher = more viable cells
Description: as §1

MCF10A [3] = assay: one-nucleolus phenotype percent effect (relative to siNT 0% and siNOL11 100%); higher = more cells with one nucleolus (ribosome biogenesis inhibition)
Description: as §1

Row | Sequence | 5+ nucleoli phenotype percent effect (MCF10A [1]) | percent viability (MCF10A [2]) | one-nucleolus phenotype percent effect (MCF10A [3])
1 | CUAUUAAGGACAUUUGUGAUUC [hsa-miR-4477a] | -13.7% | 32.6% | -0.508%
2 | CCCAGUGUUUAGACUAUCUGUUC [hsa-miR-199b-5p] | 26.5% | 170% | -14.4%
3 | UGUGUGUGUAGAGGAAGAAGGGA [hsa-miR-6867-5p] | -22.4% | 13.1% | 64.8%
4 | UGUGGGUUCUGGGUUGGGGUGA [hsa-miR-6793-5p] | -24.1% | 14.3% | 30.2%
5 | GAUCUCACUUUGUUGCCCAGG [hsa-miR-1285-5p] | 15.8% | 43.4% | -20.8%
6 | GAGCUUAUUCAUAAAAGUGCAG [hsa-miR-590-5p] | -1.22% | 66.5% | -0.31%
7 | AUAGUGGUUGUGAAUUUACCUU [hsa-miR-4460] | -22.1% | 33.9% | 11.2%
8 | CUCCUGAGCCAUUCUGAGCCUC [hsa-miR-1200] | -30.8% | 58% | 27.4%
9 | AUCAUGUAUGAUACUGCAAACA [hsa-miR-6516-3p] | -35% | 46.4% | 25.6%
10 | UCAGUGCAUGACAGAACUUGG [hsa-miR-152] | 69.9% | 145% | -26.4%
11 | CCUCAGAUCAGAGCCUUGC [hsa-miR-4330] | 59.5% | 91.9% | -32.8%
12 | UAGGGUAGACACUGACAACGUU [hsa-miR-6755-5p] | -14.8% | 19.9% | 25%
13 | CAAAUGGACAGGAUAACACCU [hsa-miR-4694-3p] | -11.7% | 35.9% | 11.8%
14 | ACGGCCCAGGCGGCAUUGGUG [hsa-miR-6075] | 5.39% | 87.5% | -5.35%
15 | CCCUGUGCCCGGCCCACUUCUG [hsa-miR-1914-5p] | 1.43% | 90.2% | -13.8%
16 | AAAAGCUGGGUUGAGAGGA [hsa-miR-320d] | -8.63% and -12.1% | 50.4% and 40.7% | 27% and 27.3%
17 | GUUCCACACUGACACUGCAGAAGU [hsa-miR-3692-3p] | 6.05% | 49.6% | -3.86%
18 | UCUGUGAUAGAGAUUCUUUGCU [hsa-miR-4679] | 8.51% | 103% | -10.8%
19 | UGCCUCCUUGGUCUCCGGCAG [hsa-miR-6791-3p] | -9.62% | 22.2% | -3.74%
20 | UCUGAAUUGUAAGAGUUGUUA [hsa-miR-4680-3p] | 14.3% | 114% | -21.5%

Row | Sequence | 5+ nucleoli phenotype percent effect (MCF10A [1]) | percent viability (MCF10A [2]) | one-nucleolus phenotype percent effect (MCF10A [3])
21 | AGGGUAAGCUGAACCUCUGAU [hsa-miR-555] | -11.2% | 32.4% | 17.6%
22 | ACCCGCCCGUCUCCCCACAG [hsa-miR-7108-3p] | 28.2% | 110% | -20.7%
23 | CGGCGCGACCGGCCCGGGG [hsa-miR-4634] | 24.7% | 71.2% | -14.3%
24 | UGACCGAUUUCUCCUGGUGUUC [hsa-miR-29c-5p] | -8.5% | 105% | 21.1%
25 | GUGUGGAAGAUGGGAGGAGAAA [hsa-miR-6833-5p] | 4.29% | 49.8% | -3.83%
26 | CAGUGAUUUGAGGAUUAUUGC [hsa-miR-8062] | -26.5% | 63.9% | 7.28%
27 | CAGGAUCCACAGAGCUAGUCCA [hsa-miR-4661-3p] | -16% | 31.4% | 7.03%
28 | CACCCGUAGAACCGACCUUGCG [hsa-miR-99b-5p] | -9.05% | 62.9% | 21.8%
29 | UCAGAACAAAUGCCGGUUCCCAGA [hsa-miR-589-3p] | 5.52% | 115% | -20.8%
30 | ACCCCUGCCACUCACUGGCC [hsa-miR-6801-3p] | 1.82% | 62% | -4.08%
31 | CAGGCAGGGAGGUGGGACCAUG [hsa-miR-6808-5p] | -14.6% | 21.7% | 28.6%
32 | UAUGCAUUGUAUUUUUAGGUCC [hsa-miR-586] | 54% | 94.9% | -12.9%
33 | AGGGAUCGCGGGCGGGUGGCGGCCU [hsa-miR-638] | 9.85% | 88% | -7.05%
34 | UUUCCGGCUCGCGUGGGUGUGU [hsa-miR-1180] | -27.5% | 31.8% | 12.6%
35 | ACCUUGCAUCUGCAUCCCCAG [hsa-miR-6841-3p] | -39.3% | 28.6% | 15%
36 | CCCUGUUCUAUGCCCUGAGGGA [hsa-miR-1266-3p] | 47.8% | 90.7% | -19.3%
37 | CGUCUUACCCAGCAGUGUUUGG [hsa-miR-200c-5p] | -1.15% | 79% | -5.6%
38 | ACGGAGACGACAAGACUGUGCUG [hsa-miR-5091] | -11.8% | 32.1% | 3.3%
39 | GGAUCCGAGUCACGGCACCA [hsa-miR-4454] | 0.148% | 56% | -14.9%
40 | CCCAUGCCUCCUGCCGCGGUC [hsa-miR-6872-3p] | -8.71% | 48% | 17.4%

Row | Sequence | 5+ nucleoli phenotype percent effect (MCF10A [1]) | percent viability (MCF10A [2]) | one-nucleolus phenotype percent effect (MCF10A [3])
41 | GGGUGAGGGCAGGUGGUU [hsa-miR-4710] | 22.2% | 19.2% | 17.1%
42 | UGAUGGAUAAAAGACUACAUAUU [hsa-miR-3134] | -19.7% | 27.6% | 23.3%
43 | CUGUACAGGCCACUGCCUUGC [hsa-let-7g-3p] | -28.3% | 55.1% | -2.69%
44 | CUUAGACUGCCAGACUCCCUGA [hsa-miR-7702] | 59.3% | 163% | -29.9%
45 | UCUUGGAGUAGGUCAUUGGGUGG [hsa-miR-432-5p] | -33.5% | 34.1% | 28.2%
46 | ACCCGUCCCGUUCGUCCCCGGA [hsa-miR-1247-5p] | 2.26% | 116% | -16.3%
47 | UCGGCUCUCUCCCUCACCCUAG [hsa-miR-6741-3p] | -4.11% | 33.2% | 9.37%
48 | UCAUUUAUCUGUUGGGAAGCUA [hsa-miR-4729] | -14.5% | 53.1% | 1.2%
49 | UUCCCUAUCUCACUCUCCUCAG [hsa-miR-6883-3p] | 20.1% | 58.5% | -14.4%
50 | AUCAUAGAGGAAAAUCCACGU [hsa-miR-376a-3p] | 51.3% | 52.2% | -19.3%
51 | UAUGUCUGCUGACCAUCACCUU [hsa-miR-654-3p] | -34.7% | 38% | 28.2%
52 | GUAGCACCUUGCAGGAUAAGGU [hsa-miR-5682] | 12.2% | 72.9% | -21.5%
53 | CAAAGUGCCUCCCUUUAGAGUG [hsa-miR-519d] | 62.9% | 72.3% | -20.2%
54 | UUGGUGAGGACCCCAAGCUCGG [hsa-miR-7855-5p] | -27.6% | 7.91% | 73.9%
55 | UUGGGGUUUGGGGUGCAGACAUUGC [hsa-miR-6855-5p] | -2.12% | 9.03% | 34.4%
56 | CAAAAACCAUAGUUACUUUUGC [hsa-miR-548bb-3p] | 40.6% | 103% | -26%
57 | UCUGCCAUCCUCCCUCCCCUAC [hsa-miR-4769-3p] | 30.9% | 87% | -18%
58 | UGGCGAUUUUGGAACUCAAUGGCA [hsa-miR-8053] | 6.04% | 36.7% | 4.42%
59 | AAGAUGUGGAAAAAUUGGAAUC [hsa-miR-576-3p] | -7.01% | 48% | 17.9%
